Reference: the supplement of paper PMC11316812
± gives the standard deviation of the averaged measurements.

Columns and labels:
[1] = tested on: MCF7; assay: percentage of EdU-negative (G0-arrested) nuclei per well, 72 h; higher = more G0 arrest; conditions: reference: sequence is the full UniProt precursor, the tested protein was the secreted form or ectodomain
[2] = tested on: hTERT-HMEC; assay: as above; conditions: reference: sequence is the full UniProt precursor, the tested protein was the secreted form or ectodomain
[3] = protein concentration 0.0079375 µM
[4] = protein concentration 0.00885714 µM
[5] = protein concentration 0.0357143 µM
[6] = protein concentration 0.079375 µM
[7] = protein concentration 0.0885714 µM
[8] = protein concentration 0.357143 µM
[9] = protein concentration 0.0225 µM
[10] = protein concentration 0.02025 µM
[11] = protein concentration 0.2025 µM
[12] = protein concentration 0.0289325 µM
[13] = protein concentration 0.289325 µM
[14] = protein concentration 0.0295 µM
[15] = protein concentration 0.01655 µM
[16] = protein concentration 0.1655 µM
[17] = protein concentration 0.020715 µM
[18] = protein concentration 0.20715 µM
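Note: secreted proteins added to cultured cells, EdU pulse at the end, nuclei found by Hoechst imaging, EdU status from nuclear versus surrounding ring intensity ratio, PBS as neutral control.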

MKPPRPVRTCSKVLVLLSLLAIHQTTTAEKNGIDIYSLTVDSRVSSRFAHTVVTSRVVNRANTVQEATFQMELPKKAFITNFSMIIDGMTYPGIIKEKAEAQAQYSAAVAKGKSAGLVKATGRNMEQFQVSVSVAPNAKITFELVYEELLKRRLGVYELLLKVRPQQLVKHLQMDIHIFEPQGISFLETESTFMTNQLVDALTTWQNKTKAHIRFKPTLSQQQKSPEQQETVLDGNLIIRYDVDRAISGGSIQIENGYFVHYFAPEGLTTMPKNVVFVIDKSGSMSGRKIQQTREALIKILDDLSPRDQFNLIVFSTEATQWRPSLVPASAENVNKARSFAAGIQALGGTNINDAMLMAVQLLDSSNQEERLPEGSVSLIILLTDGDPTVGETNPRSIQNNVREAVSGRYSLFCLGFGFDVSYAFLEKLALDNGGLARRIHEDSDSALQLQDFYQEVANPLLTAVTFEYPSNAVEEVTQNNFRLLFKGSEMVVAGKLQDRGPDVLTATVSGKLPTQNITFQTESSVAEQEAEFQSPKYIFHNFMERLWAYLTIQQLLEQTVSASDADQQALRNQALNLSLAYSFVTPLTSMVVTKPDDQEQSQVAEKPMEGESRNRNVHSGSTFFKYYLQGAKIPKPEASFSPRRGWNRQAGAAGSRMNFRPGVLSSRQLGLPGPPDVPDHAAYHPFRRLAILPASAPPATSNPDPAVSRVMNMKIEETTMTTQTPAPIQAPSAILPLPGQSVERLCVDPRHRQGPVNLLSDPEQGVEVTGQYEREKAGFSWIEVTFKNPLVWVHASPEHVVVTRNRRSSAYKWKETLFSVMPGLKMTMDKTGLLLLSDPDKVTIGLLFWDGRGEGLRLLLRDTDRFSSHVGGTLGQFYQEVLWGSPAASDDGRRTLRVQGNDHSATRERRLDYQEGPPGVEISCWSVEL
percentage of EdU-negative [1, 3]: 26.1 ± 0.6% | percentage of EdU-negative [1, 4]: 24.7 ± 1.9% | percentage of EdU-negative [1, 5]: 25.598 ± 0.0074% | percentage of EdU-negative [1, 6]: 27.8 ± 0.46% | percentage of EdU-negative [1, 7]: 22.7 ± 1.4% | percentage of EdU-negative [1, 8]: 24.7 ± 1.2% | percentage of EdU-negative [2, 3]: 4.26 ± 0.31% | percentage of EdU-negative [2, 4]: 5.26 ± 0.59% | percentage of EdU-negative [2, 5]: 4.65 ± 0.14% | percentage of EdU-negative [2, 6]: 6.25 ± 0.86% | percentage of EdU-negative [2, 7]: 5.26 ± 0.17% | percentage of EdU-negative [2, 8]: 5.86 ± 0.71%

MARVLKAAAANAVGLFSRLQAPIPTVRASSTSQPLDQVTGSVWNLGRLNHVAIAVPDLEKAAAFYKNILGAQVSEAVPLPEHGVSVVFVNLGNTKMELLHPLGRDSPIAGFLQKNKAGGMHHICIEVDNINAAVMDLKKKKIRSLSEEVKIGAHGKPVIFLHPKDCGGVLVELEQA [Q96PE7]
percentage of EdU-negative [1, 9]: 23.93 ± 0.19% | percentage of EdU-negative ([1]; protein concentration 0.225 µM): 23.1 ± 1.4% | percentage of EdU-negative [2, 9]: 5.15 ± 0.63% | percentage of EdU-negative ([2]; protein concentration 0.225 µM): 6.08 ± 0.26%

MVRLAAELLLLLGLLLLTLHITVLRGSGAADGPDAAAGNASQAQLQNNLNVGSDTTSETSFSLSKEAPREHLDHQAAHQPFPRPRFRQETGHPSLQRDFPRSFLLDLPNFPDLSKADINGQNPNIQVTIEVVDGPDSEADKDQHPENKPSWSVPSPDWRAWWQRSLSLARANSGDQDYKYDSTSDDSNFLNPPRGWDHTAPGHRTFETKDQPEYDSTDGEGDWSLWSVCSVTCGNGNQKRTRSCGYACTATESRTCDRPNCPGIEDTFRTAATEVSLLAGSEEFNATKLFEVDTDSCERWMSCKSEFLKKYMHKVMNDLPSCPCSYPTEVAYSTADIFDRIKRKDFRWKDASGPKEKLEIYKPTARYCIRSMLSLESTTLAAQHCCYGDNMQLITRGKGAGTPNLISTEFSAELHYKVDVLPWIICKGDWSRYNEARPPNNGQKCTESPSDEDYIKQFQEAREY [B1AKI9]
percentage of EdU-negative [1, 10]: 25.3 ± 2.1% | percentage of EdU-negative [1, 11]: 24.1 ± 0.87% | percentage of EdU-negative [2, 10]: 4.82 ± 0.37% | percentage of EdU-negative [2, 11]: 5.13 ± 0.59%

MLRLYVLVMGVSAFTLQPAAHTGAARSCRFRGRHYKREFRLEGEPVALRCPQVPYWLWASVSPRINLTWHKNDSARTVPGEEETRMWAQDGALWLLPALQEDSGTYVCTTRNASYCDKMSIELRVFENTDAFLPFISYPQILTLSTSGVLVCPDLSEFTRDKTDVKIQWYKDSLLLDKDNEKFLSVRGTTHLLVHDVALEDAGYYRCVLTFAHEGQQYNITRSIELRIKKKKEETIPVIISPLKTISASLGSRLTIPCKVFLGTGTPLTTMLWWTANDTHIESAYPGGRVTEGPRQEYSENNENYIEVPLIFDPVTREDLHMDFKCVVHNTLSFQTLRTTVKEASSTFSWGIVLAPLSLAFLVLGGIWMHRRCKHRTGKADGLTVLWPHHQDFQSYPK
percentage of EdU-negative [1, 9]: 25.1 ± 1.5% | percentage of EdU-negative ([1]; protein concentration 0.225 µM): 30.8 ± 0.31% | percentage of EdU-negative [2, 9]: 5.09 ± 0.47% | percentage of EdU-negative ([2]; protein concentration 0.225 µM): 9.76 ± 1.8%

MGPLPAPSCTQRITWKGLLLTASLLNFWNPPTTAEVTIEAQPPKVSEGKDVLLLVHNLPQNLPGYFWYKGEMTDLYHYIISYIVDGKIIIYGPAYSGRETVYSNASLLIQNVTRKDAGTYTLHIIKRGDETREEIRHFTFTLYLETPKPYISSSNLNPREAMEAVRLICDPETLDASYLWWMNGQSLPVTHRLQLSKTNRTLYLFGVTKYIAGPYECEIRNPVSASRSDPVTLNLLPKLPIPYITINNLNPRENKDVLAFTCEPKSENYTYIWWLNGQSLPVSPGVKRPIENRILILPSVTRNETGPYQCEIRDRYGGLRSNPVILNVLYGPDLPRIYPSFTYYRSGENLDLSCFTESNPPAEYFWTINGKFQQSGQKLFIPQITRNHSGLYACSVHNSATGKEISKSMTVKVSGPCHGDLTESQS
percentage of EdU-negative [1, 12]: 25.2 ± 0.61% | percentage of EdU-negative [1, 13]: 26.3 ± 0.9% | percentage of EdU-negative [2, 12]: 4.85 ± 0.41% | percentage of EdU-negative [2, 13]: 4.97 ± 0.19%

MEESVVRPSVFVVDGQTDIPFTRLGRSHRRQSCSVARVGLGLLLLLMGAGLAVQGWFLLQLHWRLGEMVTRLPDGPAGSWEQLIQERRSHEVNPAAHLTGANSSLTGSGGPLLWETQLGLAFLRGLSYHDGALVVTKAGYYYIYSKVQLGGVGCPLGLASTITHGLYKRTPRYPEELELLVSQQSPCGRATSSSRVWWDSSFLGGVVHLEAGEKVVVRVLDERLVRLRDGTRSYFGAFMV
percentage of EdU-negative ([1]; protein concentration 0.012 µM): 23.7 ± 1.9% | percentage of EdU-negative ([1]; protein concentration 0.12 µM): 25.5 ± 0.62% | percentage of EdU-negative ([2]; protein concentration 0.012 µM): 6.38 ± 0.16% | percentage of EdU-negative ([2]; protein concentration 0.12 µM): 15.2 ± 1.9%

MLGLPWKGGLSWALLLLLLGSQILLIYAWHFHEQRDCDEHNVMARYLPATVEFAVHTFNQQSKDYYAYRLGHILNSWKEQVESKTVFSMELLLGRTRCGKFEDDIDNCHFQESTELNNTFTCFFTISTRPWMTQFSLLNKTCLEGFH [Q9H4G1]
percentage of EdU-negative [1, 14]: 27.1 ± 2.6% | percentage of EdU-negative ([1]; protein concentration 0.295 µM): 28.28 ± 0.082% | percentage of EdU-negative [2, 14]: 4.64 ± 0.079% | percentage of EdU-negative ([2]; protein concentration 0.295 µM): 4.42 ± 0.36%

MPGSPRPAPSWVLLLRLLALLRPPGLGEACSCAPAHPQQHICHSALVIRAKISSEKVVPASADPADTEKMLRYEIKQIKMFKGFEKVKDVQYIYTPFDSSLCGVKLEANSQKQYLLTGQVLSDGKVFIHLCNYIEPWEDLSLVQRESLNHHYHLNCGCQITTCYTVPCTISAPNECLWTDWLLERKLYGYQAQHYVCMKHVDGTCSWYRGHLPLRKEFVDIVQP
percentage of EdU-negative [1, 15]: 26.2 ± 1.7% | percentage of EdU-negative [1, 16]: 27.1 ± 0.65% | percentage of EdU-negative [2, 15]: 5.41 ± 0.19% | percentage of EdU-negative [2, 16]: 6.76 ± 0.1%

MGLEKPQSKLEGGMHPQLIPSVIAVVFILLLSVCFIASCLVTHHNFSRCKRGTGVHKLEHHAKLKCIKEKSELKSAEGSTWNCCPIDWRAFQSNCYFPLTDNKTWAESERNCSGMGAHLMTISTEAEQNFIIQFLDRRLSYFLGLRDENAKGQWRWVDQTPFNPRRVFWHKNEPDNSQGENCVVLVYNQDKWAWNDVPCNFEASRICKIPGTTLN [Q8WXI8]
percentage of EdU-negative [1, 9]: 23.5 ± 0.48% | percentage of EdU-negative ([1]; protein concentration 0.225 µM): 25.2 ± 0.46% | percentage of EdU-negative [2, 9]: 6.12 ± 0.23% | percentage of EdU-negative ([2]; protein concentration 0.225 µM): 6.07 ± 0.51%

MAGPWTFTLLCGLLAATLIQATLSPTAVLILGPKVIKEKLTQELKDHNATSILQQLPLLSAMREKPAGGIPVLGSLVNTVLKHIIWLKVITANILQLQVKPSANDQELLVKIPLDMVAGFNTPLVKTIVEFHMTTEAQATIRMDTSASGPTRLVLSDCATSHGSLRIQLLHKLSFLVNALAKQVMNLLVPSLPNLVKNQLCPVIEASFNGMYADLLQLVKVPISLSIDRLEFDLLYPAIKGDTIQLYLGAKLLDSQGKVTKWFNNSAASLTMPTLDNIPFSLIVSQDVVKAAVAAVLSPEEFMVLLDSVLPESAHRLKSSIGLINEKAADKLGSTQIVKILTQDTPEFFIDQGHAKVAQLIVLEVFPSSEALRPLFTLGIEASSEAQFYTKGDQLILNLNNISSDRIQLMNSGIGWFQPDVLKNIITEIIHSILLPNQNGKLRSGVPVSLVKALGFEAAESSLTKDALVLTPASLWKPSSPVSQ [Q8TDL5]
percentage of EdU-negative [1, 9]: 25.5 ± 0.91% | percentage of EdU-negative ([1]; protein concentration 0.225 µM): 30.5 ± 0.65% | percentage of EdU-negative [2, 9]: 5.17 ± 0.22% | percentage of EdU-negative ([2]; protein concentration 0.225 µM): 8.84 ± 0.099%

MLLKTVLLLGHVAQVLMLDNGLLQTPPMGWLAWERFRCNINCDEDPKNCISEQLFMEMADRMAQDGWRDMGYTYLNIDDCWIGGRDASGRLMPDPKRFPHGIPFLADYVHSLGLKLGIYADMGNFTCMGYPGTTLDKVVQDAQTFAEWKVDMLKLDGCFSTPEERAQGYPKMAAALNATGRPIAFSCSWPAYEGGLPPRVNYSLLADICNLWRNYDDIQDSWWSVLSILNWFVEHQDILQPVAGPGHWNDPDMLLIGNFGLSLEQSRAQMALWTVLAAPLLMSTDLRTISAQNMDILQNPLMIKINQDPLGIQGRRIHKEKSLIEVYMRPLSNKASALVFFSCRTDMPYRYHSSLGQLNFTGSVIYEAQDVYSGDIISGLRDETNFTVIINPSGVVMWYLYPIKNLEMSQQ
percentage of EdU-negative [1, 17]: 27.8 ± 0.95% | percentage of EdU-negative [1, 18]: 26.5 ± 1.4% | percentage of EdU-negative [2, 17]: 5.62 ± 0.13% | percentage of EdU-negative [2, 18]: 6.091 ± 0.044%
